Measurements as given in US20050202403A1.
Where “and” joins values, the source holds several entries; their conditions need not be identical. Identical values can stand only once.

These substances were tested against human adenosine A2a receptor (human) (UniProt P29274) (assay: cell-based or functional assay).
Sequence of human adenosine A2a receptor (human) (P29274 whole entry): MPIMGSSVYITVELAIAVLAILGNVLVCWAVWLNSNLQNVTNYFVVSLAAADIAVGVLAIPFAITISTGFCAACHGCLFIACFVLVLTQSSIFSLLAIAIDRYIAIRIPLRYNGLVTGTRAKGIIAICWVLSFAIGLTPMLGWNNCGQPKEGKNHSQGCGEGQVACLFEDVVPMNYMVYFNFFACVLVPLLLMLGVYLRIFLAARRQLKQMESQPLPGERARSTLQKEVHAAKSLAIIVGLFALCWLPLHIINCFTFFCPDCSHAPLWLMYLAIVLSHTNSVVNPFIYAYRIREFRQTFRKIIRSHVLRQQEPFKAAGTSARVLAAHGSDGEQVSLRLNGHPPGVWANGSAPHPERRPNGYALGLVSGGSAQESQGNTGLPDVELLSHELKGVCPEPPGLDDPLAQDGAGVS

Sequence of GPA1-Gα12 chimera (Cp3435) (P08539 1-41, change not shown): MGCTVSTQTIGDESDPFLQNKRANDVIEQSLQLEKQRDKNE
Sequence of GPA1-Gα12 S288P chimera (Cp3822) (P08539 1-41, stated change not applied): as the sequence (P08539 1-41, change not shown) above
Sequence of GPA1(41)-Gαi1 (P08539 1-41): as the sequence (P08539 1-41, change not shown) above
Sequence of GPA1(41)-Gαi2-Gαo(40) (P08539 1-41): as the sequence (P08539 1-41, change not shown) above
Sequence of Gpal(1-43)-Gαi2(36-242)-GαoB(243-354) S280P chimera (Cp3635) (P08539 1-43, stated change not applied): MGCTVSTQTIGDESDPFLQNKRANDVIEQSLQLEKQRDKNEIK
Sequence of rat Gαs, wild type (Cp3098) (P63095 2-394): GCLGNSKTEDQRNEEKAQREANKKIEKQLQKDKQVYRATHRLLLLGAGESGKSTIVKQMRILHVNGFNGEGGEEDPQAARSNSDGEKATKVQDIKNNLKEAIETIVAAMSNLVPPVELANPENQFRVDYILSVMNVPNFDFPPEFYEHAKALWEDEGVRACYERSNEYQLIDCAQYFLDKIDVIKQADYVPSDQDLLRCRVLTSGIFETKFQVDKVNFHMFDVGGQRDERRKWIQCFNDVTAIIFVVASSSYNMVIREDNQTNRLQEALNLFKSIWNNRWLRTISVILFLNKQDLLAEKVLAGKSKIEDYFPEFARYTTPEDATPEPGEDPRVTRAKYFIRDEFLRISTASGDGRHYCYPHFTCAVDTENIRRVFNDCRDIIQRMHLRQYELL
Sequence of GPA1(20)-Gα16 (P08539 1-20): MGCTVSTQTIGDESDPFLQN

Row | Substance | fusl-lacZ reporter, β-galactosidase units on addition of NECA
1 | rat Gαs E10K D229S double mutant (from UniProt P63095 2-394) | 10 fold
2 | rat Gαs S286P (from UniProt P63095 2-394) | 10 fold
3 | rat Gαs E10K (from UniProt P63095 2-394) | 10 fold
4 | rat Gαs D229S (Cp3390) (from UniProt P63095 2-394) | 10 fold
5 | rat Gαs N254D (from UniProt P63095 2-394) | 10 fold

Each substance was assayed against yeast Gβγ (STE4/STE18) (Saccharomyces cerevisiae) (UniProt P18851) (assay: cell-based or functional assay).
Sequence of yeast Gβγ (STE4/STE18) (Saccharomyces cerevisiae) (P18851 whole entry, chain 1 of 2): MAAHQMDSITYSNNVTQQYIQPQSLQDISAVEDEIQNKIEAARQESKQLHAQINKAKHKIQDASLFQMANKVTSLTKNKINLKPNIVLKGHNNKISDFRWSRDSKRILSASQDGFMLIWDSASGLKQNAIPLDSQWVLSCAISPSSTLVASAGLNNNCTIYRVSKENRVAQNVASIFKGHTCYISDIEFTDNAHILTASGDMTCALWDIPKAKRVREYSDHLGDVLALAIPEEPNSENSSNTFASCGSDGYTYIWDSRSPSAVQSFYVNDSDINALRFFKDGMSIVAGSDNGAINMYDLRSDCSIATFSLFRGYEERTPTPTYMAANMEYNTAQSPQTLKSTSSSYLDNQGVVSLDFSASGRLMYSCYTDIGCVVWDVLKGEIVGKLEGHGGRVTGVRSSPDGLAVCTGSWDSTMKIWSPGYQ
Sequence of yeast Gβγ (STE4/STE18) (Saccharomyces cerevisiae) (P18852 1-107, chain 2 of 2, further chain): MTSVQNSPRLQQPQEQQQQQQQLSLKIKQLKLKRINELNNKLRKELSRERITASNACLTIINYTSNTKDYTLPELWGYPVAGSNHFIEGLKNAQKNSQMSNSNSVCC

Row | Substance | min[AT]i | growth of the gpal fusl-HIS3 strain on 3-AT | growth of a gpal fusl-HIS3 colony on media lacking histidine with 3-AT | growth of gpa1 fus1-HIS3 yeast on aminotriazole
6 | Gαi1 | 1.5 mM |  |  | 
7 | rat Gαs D229V (from UniProt P63095 2-394) |  | 0.2 mM |  | 
8 | rat Gαs, wild type (Cp3098) (from UniProt P63095 2-394) |  |  | 1 mM | 
9 | GPA1(20)-Gα16 (from UniProt P08539 1-20) | 1 mM |  |  | 
10 | GPA1-Gα12 S288P chimera (Cp3822) (from UniProt P08539 1-41) | 1 mM |  |  | 0.5 mM
11 | GPA1(41)-Gαi1 (from UniProt P08539 1-41) | 0.5 mM |  |  | 
12 | GPA1(20)-Gα16(S-P) (from UniProt P08539 1-20) | 0.5 mM |  |  | 
13 | rat Gαs S286P (from UniProt P63095 2-394) |  | 0.2 mM |  | 
14 | GPA1-Gα12 chimera (Cp3435) (from UniProt P08539 1-41) |  |  |  | 2.5 mM and 1 mM
15 | GPA1(41)-Gαi2-Gαo(40) (from UniProt P08539 1-41) | 1 mM |  |  | 
16 | rat Gαs E10K (from UniProt P63095 2-394) |  | 0.2 mM |  | 
17 | GPA1(41)-Gαi2 (from UniProt P08539 1-41; P04899 36-355) | 0.5 mM |  |  | 
18 | rat Gαs N254D (from UniProt P63095 2-394) |  | 0.2 mM |  | 
19 | Gpal(1-43)-Gαi2(36-242)-GαoB(243-354) S280P chimera (Cp3635) (from UniProt P08539 1-43) | 1 mM |  |  | 
20 | Gpal(1-43)-Gα16(45-374) S270P chimera (Cp3699) (from UniProt P08539 1-43; P30679 45-374) | 1 mM |  |  | 
21 | GPA1(41)-Gαi3 (from UniProt P08539 1-41; P08754 36-354) | 0.5 mM |  |  | 
